{"source": "patent US20250276075A1", "about": "“METHODS OF TREATING AXL-EXPRESSING CANCERS WITH ANTI-AXL ANTIBODIES, ANTIBODY FRAGMENTS AND THEIR IMMUNOCONJUGATES” (BIOATLA, INC., priority 2020, published 2025)", "test": "Phase 1 clinical study of BA3011: safety (adverse events, DLT, MTD, RP2D)", "assay_type": "in vivo, human", "conditions": "Phase 1", "source_text": "MTD evaluation will be based on the DLT-evaluable Population. The DLT-evaluable Population includes all patients enrolled in Phase 1 dose escalation who receive at least 1 full assigned dose of BA3011 and complete the safety follow-up through the DLT-evaluation period (defined as the time period from the first dose of BA3011 through 21 days post Dose 1) or experience any DLT during the DLT-evaluation period. Non-DLT-evaluable patients will be replaced. The safety evaluation will be based on the As-Treated Population. Adverse events (AEs) will be coded by Medical Dictionary for Regulatory Activities (MedDRA) and graded according to the NCI CTCAE v4.03, and the type, incidence, severity, and relationship to each IP will be summarized. If any associations of interest between AEs and baseline characteristics are observed, additional stratified results may be presented. All treatment-emergent AEs will be summarized by MedDRA system organ class and preferred term. Laboratory abnormalities with toxicity grades according to the NCI CTCAE will be summarized.\nA DLT is defined as meeting 1 of the following criteria during the 21-day DLT evaluation period or a treatment-related toxicity of any grade requiring dose delay of 1 week or more between the first and second cycles: • Non-hematologic Toxicity • For non-hematologic toxicities, DLT will be defined as any National Cancer Institute (NCI) Common Terminology Criteria for Adverse Events (CTCAE) v4.03 (published 14 Jun. 2010) Grade 3 or greater toxicity at least possibly related to treatment, except for: • Grade 3 fatigue. • Grade 3 nausea and vomiting lasting less than 24 hours. • Grade 3 non-hematologic laboratory abnormalities that are asymptomatic and resolve to Grade 1 or baseline (if the patient entered the study with existing toxicity) within 14 days. • Grade 3 or 4 allergic or hypersensitivity reaction at first occurrence in the absence of prophylactic steroid that resolves in less than 6 hours with appropriate clinical intervention\n• DLT for hematologic toxicity, using NCI CTCAE v4.03, will be defined as: • Grade 4 neutropenia lasting greater than 7 days. • Grade 3 or 4 febrile neutropenia. • Grade 4 platelet count (<25,000/mm3) at any time.\nStudy BA3011-001 was an ongoing, multi-center, open-label, Phase 1/2 first-in-human trial of BA3011.\nIn Phase 1 (NCT03425279), BA3011 was administered once (Q3W) or twice (2Q3W) every 3 weeks via intravenous (IV) infusion.", "key": {"[1]": {"conditions": "0.3 mg/kg Q3W, 1 sarcoma patient"}, "[2]": {"conditions": "1.2 mg/kg 2Q3W, 2 sarcoma patients"}, "[3]": {"conditions": "1.8 mg/kg 2Q3W, 19 sarcoma patients"}, "[4]": {"conditions": "1.8 mg/kg Q3W, 2 sarcoma patients"}, "[5]": {"conditions": "2.4 mg/kg Q3W, 2 sarcoma patients"}, "[6]": {"conditions": "All TEAEs, All Grades, sarcoma patients"}}, "data": [{"molecule": "Mecbotamab vedotin (conjugate, chains of the INN, looked up, MC-vc-PAB-MMAE conjugate) VH: EVQLVQSGAEVKKPGATVKISCKVSGYSFWGATMNWIRQPPGKGLEWIGLIKPSNGGTSYNQKFKGRVTISADKSISTAYLQWSSLKASDTAMYYCAHGHYESYEAMDYWGQGTLVTVSS VL: DIQMTQSPSSLSASVGDRVTITCKASQDVVSAVAWYQQKPGQAPRLLIYWQDTRHTGVPSRFSGSGSGTEFTLTISSLQPDDFATYYCQEHFSPPLTFGQGTKVEIK", "values": [{"measurement": "Any TEAE, % of patients", "setting": "[1]", "result": 100.0, "unit": "%"}, {"measurement": "Any TEAE, no. of patients", "setting": "[1]", "result": 1}, {"measurement": "Any related serious TEAE, no. of patients", "setting": "[1]", "result": 0}, {"measurement": "Any serious TEAE, no. of patients", "setting": "[1]", "result": 0}, {"measurement": "Related TEAE leading to treatment discontinuation, no. of patients", "setting": "[1]", "result": 0}, {"measurement": "Related TEAEs with CTCAE grade 3 or 4, no. of patients", "setting": "[1]", "result": 0}, {"measurement": "TEAE leading to treatment discontinuation, no. of patients", "setting": "[1]", "result": 0}, {"measurement": "TEAE with CTCAE grade 3 or 4, no. of patients", "setting": "[1]", "result": 0}, {"measurement": "TEAEs leading to death, no. of patients", "setting": "[1]", "result": 0}, {"measurement": "Any TEAE, % of patients", "setting": "[2]", "result": 100.0, "unit": "%"}, {"measurement": "Any TEAE, no. of patients", "setting": "[2]", "result": 2}, {"measurement": "Any related serious TEAE, no. of patients", "setting": "[2]", "result": 0}, {"measurement": "Any serious TEAE, no. of patients", "setting": "[2]", "result": 0}, {"measurement": "Related TEAE leading to treatment discontinuation, no. of patients", "setting": "[2]", "result": 0}, {"measurement": "Related TEAEs with CTCAE grade 3 or 4, no. of patients", "setting": "[2]", "result": 0}, {"measurement": "TEAE leading to treatment discontinuation, no. of patients", "setting": "[2]", "result": 0}, {"measurement": "TEAE with CTCAE grade 3 or 4, % of patients", "setting": "[2]", "result": 100.0, "unit": "%"}, {"measurement": "TEAE with CTCAE grade 3 or 4, no. of patients", "setting": "[2]", "result": 2}, {"measurement": "TEAEs leading to death, no. of patients", "setting": "[2]", "result": 0}, {"measurement": "Any TEAE, % of patients", "setting": "[3]", "result": "(100.0%)"}, {"measurement": "Any TEAE, no. of patients", "setting": "[3]", "result": 19}, {"measurement": "Any related serious TEAE, % of patients", "setting": "[3]", "result": "(5.3%)"}, {"measurement": "Any serious TEAE, % of patients", "setting": "[3]", "result": "(36.8%)"}, {"measurement": "Any serious TEAE, no. of patients", "setting": "[3]", "result": 7}, {"measurement": "Related TEAE leading to treatment discontinuation, % of patients", "setting": "[3]", "result": "(10.5%)"}, {"measurement": "Related TEAEs with CTCAE grade 3 or 4, % of patients", "setting": "[3]", "result": "(57.9%)"}, {"measurement": "Related TEAEs with CTCAE grade 3 or 4, no. of patients", "setting": "[3]", "result": 11}, {"measurement": "TEAE leading to treatment discontinuation, % of patients", "setting": "[3]", "result": "(10.5%)"}, {"measurement": "TEAE leading to treatment discontinuation, no. of patients", "setting": "[3]", "result": 2}, {"measurement": "TEAE with CTCAE grade 3 or 4, % of patients", "setting": "[3]", "result": "(68.4%)"}, {"measurement": "TEAE with CTCAE grade 3 or 4, no. of patients", "setting": "[3]", "result": 13}, {"measurement": "TEAEs leading to death, no. of patients", "setting": "[3]", "result": 0}, {"measurement": "Any related serious TEAE, no. of patients", "setting": "1.8 mg/kg 2Q3W, 19 sarcoma patients, hepatic encephalopathy, CTCAE grade 2", "result": 1}, {"measurement": "Related TEAE leading to treatment discontinuation, no. of patients", "setting": "1.8 mg/kg 2Q3W, 19 sarcoma patients, neuropathy peripheral grade 2, fatigue grade 3", "result": 2}, {"measurement": "Any TEAE, % of patients", "setting": "[4]", "result": "(100.0%)"}, {"measurement": "Any TEAE, no. of patients", "setting": "[4]", "result": 2}, {"measurement": "Any related serious TEAE, no. of patients", "setting": "[4]", "result": 0}, {"measurement": "Any serious TEAE, % of patients", "setting": "[4]", "result": "(50.0%)"}, {"measurement": "Any serious TEAE, no. of patients", "setting": "[4]", "result": 1}, {"measurement": "Related TEAE leading to treatment discontinuation, no. of patients", "setting": "[4]", "result": 0}, {"measurement": "Related TEAEs with CTCAE grade 3 or 4, no. of patients", "setting": "[4]", "result": 0}, {"measurement": "TEAE leading to treatment discontinuation, no. of patients", "setting": "[4]", "result": 0}, {"measurement": "TEAE with CTCAE grade 3 or 4, % of patients", "setting": "[4]", "result": "(50.0%)"}, {"measurement": "TEAE with CTCAE grade 3 or 4, no. of patients", "setting": "[4]", "result": 1}, {"measurement": "TEAEs leading to death, no. of patients", "setting": "[4]", "result": 0}, {"measurement": "Any TEAE, % of patients", "setting": "[5]", "result": "(100.0%)"}, {"measurement": "Any TEAE, no. of patients", "setting": "[5]", "result": 2}, {"measurement": "Any related serious TEAE, no. of patients", "setting": "[5]", "result": 0}, {"measurement": "Any serious TEAE, % of patients", "setting": "[5]", "result": "(50.0%)"}, {"measurement": "Any serious TEAE, no. of patients", "setting": "[5]", "result": 1}, {"measurement": "Related TEAE leading to treatment discontinuation, no. of patients", "setting": "[5]", "result": 0}, {"measurement": "Related TEAEs with CTCAE grade 3 or 4, % of patients", "setting": "[5]", "result": "(50.0%)"}, {"measurement": "Related TEAEs with CTCAE grade 3 or 4, no. of patients", "setting": "[5]", "result": 1}, {"measurement": "TEAE leading to treatment discontinuation, no. of patients", "setting": "[5]", "result": 0}, {"measurement": "TEAE with CTCAE grade 3 or 4, % of patients", "setting": "[5]", "result": "(50.0%)"}, {"measurement": "TEAE with CTCAE grade 3 or 4, no. of patients", "setting": "[5]", "result": 1}, {"measurement": "TEAEs leading to death, no. of patients", "setting": "[5]", "result": 0}, {"measurement": "Alanine aminotransferase increased, %", "setting": "[6]", "result": "(46.2) %"}, {"measurement": "Alopecia, %", "setting": "[6]", "result": "(23.9) %"}, {"measurement": "Anemia, %", "setting": "[6]", "result": "(15.4) %"}, {"measurement": "Arthralgia, %", "setting": "[6]", "result": "(23.9) %"}, {"measurement": "Aspartate aminotransferase increased, %", "setting": "[6]", "result": "(42.3) %"}, {"measurement": "Blood alkaline phosphatase increased, %", "setting": "[6]", "result": "(23.9) %"}, {"measurement": "Blood bilirubin increased, %", "setting": "[6]", "result": "(3.8) %"}, {"measurement": "Bone pain, %", "setting": "[6]", "result": "(26.9) %"}, {"measurement": "Constipation, %", "setting": "[6]", "result": "(26.9) %"}, {"measurement": "Decreased appetite, %", "setting": "[6]", "result": "(23.9) %"}, {"measurement": "Diarrhea, %", "setting": "[6]", "result": "(26.9) %"}, {"measurement": "Fatigue, %", "setting": "[6]", "result": "(61.5) %"}, {"measurement": "Hypokalemia, %", "setting": "[6]", "result": "(15.4) %"}, {"measurement": "Hyponatremia, %", "setting": "[6]", "result": "(11.5) %"}, {"measurement": "Lymphocyte count decreased, %", "setting": "[6]", "result": "(7.7) %"}, {"measurement": "Nausea, %", "setting": "[6]", "result": "(58.3) %"}, {"measurement": "Neutrophil count decreased, %", "setting": "[6]", "result": "(26.9) %"}, {"measurement": "Patients with at least one TEAE, %", "setting": "[6]", "result": "(100.0) %"}, {"measurement": "Peripheral neuropathy, %", "setting": "[6]", "result": "(15.4) %"}]}]}
